From doi:10.1101/235556

Biological target: Polyhydroxyalkanoate synthase PhaC from Aquitalea sp. USM4 (JCM 19919) (Aquitalea sp. USM4 (JCM 19919))
Assay: SEC

- stoichiometry N: 2
Substance: Polyhydroxyalkanoate synthase PhaC from Aquitalea sp. USM4 (JCM 19919) (enzyme)
